The target of the assay is Endothelin Receptor Type B (human (endogenous in LGG275 and other patient-derived glioma lines)) (UniProt P24530).
UniProt P24530, sequence (P24530 27-442): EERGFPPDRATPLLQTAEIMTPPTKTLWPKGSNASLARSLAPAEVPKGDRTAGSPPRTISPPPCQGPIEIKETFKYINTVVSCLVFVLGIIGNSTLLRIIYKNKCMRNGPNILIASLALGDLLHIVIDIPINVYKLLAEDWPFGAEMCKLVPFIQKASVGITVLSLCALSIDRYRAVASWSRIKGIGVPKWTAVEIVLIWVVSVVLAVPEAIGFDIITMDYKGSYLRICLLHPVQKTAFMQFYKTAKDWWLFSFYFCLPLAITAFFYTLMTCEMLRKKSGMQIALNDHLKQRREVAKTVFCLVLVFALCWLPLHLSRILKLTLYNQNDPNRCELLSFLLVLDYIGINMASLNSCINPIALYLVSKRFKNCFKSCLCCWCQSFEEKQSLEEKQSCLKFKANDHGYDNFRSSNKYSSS

As for CTCFTYKDKECVYYCHLDIIW (ligand) [Endothelin 3], the growth of LGG275 cells, dose-response with ET-3 (4 pM-40 nM): lowest concentration with growth inhibition is 0.4 nM.
